Here are results for six substances from publication PMC6981688.

Series [1] is described as follows: Flag IP, WB, increasing OGA. Conditions: glycan lost; control: full-length NSL3wt.
Series [2] in a line: Flag IP, anti-HA-ubiquitin WB, increasing OGT1, UBE2S, MG132. The note with it: glycan lost; control: full-length NSL3wt.
Series [3] can be described thus: WB of histone marks in 293T. Conditions: glycan lost; control: NSL3-3wt overexpression.
Series [4] in a line: NSL3 ubiquitination: Flag IP, anti-HA-ubiquitin WB, MG132. Conditions: glycan gained; control: NSL3 alone / untreated.
Series [5] can be described thus: Flag IP, anti-HA-ubiquitin WB, increasing OGT1, NSL3-3 truncation. The note with it: glycan lost; control: NSL3-3wt.
Series [6] in a line: Flag-OGT1 IP, WB for NSL3, MOF, MCRS1, PHF20, NSL1, NSL2. The note with it: glycan lost; control: NSL3-3wt overexpression.
A further series can be described thus: A549 colony formation. Conditions: glycan lost; control: NSL3-3wt overexpression.

For the substance “NSL3 (nonspecific lethal protein 3): NSL3 T755A”, the “other: OGA-induced increase of NSL3 ubiquitination and UBE2S binding” value in series [1] is “decreases”. Further, the “other: OGT1-dependent decrease of NSL3 ubiquitination” value in series [2] is recorded as “abolishes”.

For “NSL3 (nonspecific lethal protein 3): Flag-NSL3-3 T755A”, the “other: reduction of global H4 acetylation/H3K4me2 by NSL3-3 overexpression” value in series [3] is listed as “abolishes”.

Regarding “NSL3 (nonspecific lethal protein 3): thiamet-G (TMG)”, the degradation_or_half_life result in series [4] is on record as “decreases”.

As to “NSL3 (nonspecific lethal protein 3): OGT1 co-transfection”, the degradation_or_half_life result in series [4] is on record as “increases”.

Regarding “NSL3 (nonspecific lethal protein 3): NSL3-3 T755A”, the degradation_or_half_life result in series [5] is on record as “changes”. In series [6], the “other: loss of NSL complex subunits from Flag-OGT1 IP caused by NSL3-3” value is “abolishes”.

Take “NSL3 (nonspecific lethal protein 3): NSL3-3mt (T755A)”: the “other: colony suppression by NSL3-3 overexpression” value in “A549 colony formation” is reported as “abolishes”.
